Results as given in patent publication US11434506B2, “Production of desaturated fatty alcohols and desaturated fatty alcohol acetates in yeast” (Danmarks Tekniske Universitet, priority 2016, dated 2022).

Tests used:
[1] = tested on: fall armyworm; details: applied alone, without other pheromone components; cited from earlier work
[2] = production of (Z)-9-tetradecen-1-yl acetate by S. cerevisiae CEN.PK102-5B strains, GC-MS; details: overexpression of desaturase, ST5290 versus ST4854
Description: The strains for production of pheromone were created on the basis of S. cerevisiae CEN.PK102-5B, which had active OLE1 and ELO1 genes.
Strains ST4854 and ST5290 were inoculated into 5 ml synthetic complete medium (lacking histidine, leucine, tryptophan supplemented with 20 mg/L uracil and 76 mg/L histidine) and cultivated in 12-ml glass tubes (Duran, Wertheim, Germany) with metal labocap lids (Lüdiswiss, Flawil, Switzerland) overnight at 30° C. with shaking at 250 rpm. The following day the overnight culture was centrifuged, the supernatant was discarded and the pellet was resuspended in 2 ml of mineral medium, which had the composition as described in (Jensen et al, 2014). The medium was supplemented with 76 mg/L histidine and 20 mg/L uracil. The cultures were incubated at 30° C. with shaking at 250 rpm for 48 hours.
1 mL sample of culture was transferred into a 4-mL glass vial and 10 μL of internal standard stock (1 μg/μl (Z)10-heptan-1-yl methyl ester in 100% ethanol) was added. The vials were covered with small pieces of aluminum foil and we used a needle to pierce small holes in the foil covers. The samples were vortexed and placed at −80° C. for storage until analysis. […] The concentration of (Z)-9-tetradecen-1-yl acetate was calculated based on internal standard.

[3] = tested on: C14-CoA substrate; test: activity and specificity of heterologous desaturases in yeast fed methyl myristate, FAMEs by GC-MS; assay type: cell-based, S. cerevisiae; details: among the tested desaturases

| Molecule | disruption of mating efficiency [1] [%] | increase of titer of Z9:14:OAc [2] | activity and specificity towards C14-CoA substrate [3] |
| --- | --- | --- | --- |
| CCCC/C=C\CCCCCCCCOC(C)=O [(Z)19-14:OAc, (Z)9-tetradecen-1-yl acetate] | 86 |  |  |
| D. melanogaster desaturase: Δ9 desaturase from Drosophila melanogaster Dmd9, SEQ ID NO: 10 (protein, Drosophila melanogaster) MAPYSRIYHQDKSSRETGVLFEDDAQTVDSDLTTDRFQLKRAEKRRLPLVWRNIILFALVHLAALYGLHSIFTRAKLATTLFAAGLYIIGMLGVTAGAHRLWAHRTYKAKWPLRLLLVIFNTIAFQDAVYHWARDHRVHHKYSETDADPHNATRGFFFSHVGWLLCKKHPDIKEKGRGLDLSDLRADPILMFQRKHYYILMPLACFVLPTVIPMVYWNETLASSWFVATMFRWCFQLNMTWLVNSAAHKFGNRPYDKTMNPTQNAFVSAFTFGEGWHNYHHAFPWDYKTAEWGCYSLNITTAFIDLFAKIGWAYDLKTVAPDVIQRRVLRTGDGSHELWGWGDKDLTAEDARNVLLVDKSR |  | more than 5 fold | highest activity and specificity |
